Values quoted from earlier work as cited in article PMC9163320.

Target: Asp303 (UniProt position 303, VILFMDRNLEQ)
Experiment: NMR
Conditions: folded Hint domain; no ligand stated

Row | Substance | pKa
1 | Hedgehog protein, Hint domain of HhC, C258A mutant (Drosophila melanogaster; C258A) | 4.2
2 | Hedgehog protein, Hint domain of the C-terminal autoprocessing domain (HhC) (Drosophila melanogaster) | 5.6
